These results are taken from US20220016243A1 (published 2022).

This assay concerns the target T1, TIGIT (T-cell immunoreceptor with Ig and ITIM domains), peripheral TIGIT receptors on patients' CD4+ T cells, … (human (patients), UniProt Q495A1 22-244).
T1 construct: whole, on cells; Endogenous receptor on patients' peripheral immune cells; Occupancy was measured ex vivo after dosing with tiragolumab
T1 sequence (looked up): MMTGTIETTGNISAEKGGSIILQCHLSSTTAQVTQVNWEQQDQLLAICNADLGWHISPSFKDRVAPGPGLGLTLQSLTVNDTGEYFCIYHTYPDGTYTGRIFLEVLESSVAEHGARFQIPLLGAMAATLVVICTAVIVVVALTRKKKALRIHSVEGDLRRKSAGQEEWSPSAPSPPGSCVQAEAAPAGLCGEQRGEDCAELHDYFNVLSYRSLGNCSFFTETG
Description: receptor occupancy on peripheral CD8+ T cells and NK cells of patients dosed at 2-1200 mg Q3W (Phase Ia, Study GO30103).

B1: tiragolumab (antibody, human IgG1, kappa, V domains shown)
VH: EVQLQQSGPGLVKPSQTLSLTCAISGDSVSSNSAAWNWIRQSPSRGLEWLGKTYYRFKWYSDYAVSVKGRITINPDTSKNQFSLQLNSVTPEDTAVFYCTRESTTYDLLAGPFDYWGQGTLVTVSS
VL: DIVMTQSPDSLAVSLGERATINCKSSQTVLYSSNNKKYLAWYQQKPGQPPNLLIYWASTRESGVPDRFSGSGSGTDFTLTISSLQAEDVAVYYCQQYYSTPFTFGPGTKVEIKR
notes: also called MTIG7192A; RG6058
As for B1, the binding result was “binds”.
